Experiments:
[1] = biological target: T1, BCMA on BCMA-positive NCI-H929, ARP-1 and U266B1 cells (human, UniProt Q02223 1-184); assay: FACS, NCI-H929 cells
T1 construct: they are human cell lines; also called B-cell maturation antigen; TNFRSF17
T1 sequence: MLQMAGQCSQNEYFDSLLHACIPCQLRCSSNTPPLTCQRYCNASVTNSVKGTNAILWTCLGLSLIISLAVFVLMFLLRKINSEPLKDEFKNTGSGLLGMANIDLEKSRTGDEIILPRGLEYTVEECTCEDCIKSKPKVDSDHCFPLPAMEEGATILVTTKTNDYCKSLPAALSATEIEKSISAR
Description: (§1) Variants for which sufficient protein was purified in secondary screening were tested in a fluorescence-activated cell sorting (FACS) cell-binding assay. […] 6-12 point dilutions of anti-BCMA variants starting from concentrations of about 100-200 nM antibody were dispensed into each well using a BioMekFX (Beckman Coulter). Cells were then incubated on ice for 1 hr, washed with FACS buffer and incubated for 1 hr on ice with […] FACS buffer containing […] Alexa647-conjugated Goat Anti-Human IgG dispensed using BioMekFX (Beckman Coulter). Cells were then washed 2× with FACS buffer and fixed for 10 minutes in […] PBS with 2% PFA prior to fluorescence detection. Samples were acquired using a Beckton Dickinson LSRII FACS. Geometric Mean Fluorescence Intensity of BCMA antibody binding was analyzed using FlowJo® software (Trec Star, Inc.).

[2] = biological target: T2, human BCMA-Fc (human, UniProt Q02223 5-51, limits assumed); assay: SPR (Biacore), captured antibody
T2 construct: Bought from R&D Systems; also called huBCMA-Fc; BCMA-Fc (R&D Systems)
T2 chain (looked up): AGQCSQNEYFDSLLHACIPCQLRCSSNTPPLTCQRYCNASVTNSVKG

[3] = biological target: T3, rat BCMA on 293T-ratBCMA cells (rat); assay: FACS, 293T-ratBCMA cells
T3 construct: whole, on cells

[4] = biological target: T1, BCMA on BCMA-positive NCI-H929, ARP-1 …; assay: cell-based or functional assay
[5] = biological target: cynomolgus BCMA on 293T-cynoBCMA cells (cynomolgus, UniProt Q02223 1-184 (human entry)); assay: FACS, 293T-cynoBCMA cells
Description: as §1

Sequence of cynomolgus BCMA on 293T-cynoBCMA cells (Q02223 other isoform, or with tags, fused parts or gaps): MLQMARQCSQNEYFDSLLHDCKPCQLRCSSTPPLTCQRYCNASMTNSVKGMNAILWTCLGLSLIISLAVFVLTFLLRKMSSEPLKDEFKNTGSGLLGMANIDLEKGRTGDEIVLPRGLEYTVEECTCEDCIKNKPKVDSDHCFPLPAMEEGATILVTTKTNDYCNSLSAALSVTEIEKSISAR

Bmax (MFI) [1]: 18700 MFI | binding result [2]: no binding (tested: antigen 1-100 nM) | Bmax (MFI) [3]: 410 MFI | Bmax (MFI) [5]: 12800 MFI
B1: 10F4 (antibody, V domains shown)
VH: AVTLDESGGGLQTPGGALSLVCKASGFTFSGYNMGWVRQAPGKGLEYVAGITYGTGSYTAYGAAVKGRATISRDNGQSTLRLQLNNLRAEDTATYYCARGGGLNSYGCSGANIDAWGHGTEVIVSS
VL: ALTQPSSVSANLGGTVKITCSGGGNYFGSYYYGWYQQKAPGSAPVTVIYNNNNRPSDIPSRFSGSTSGSTSTLTISGVRAEDEAVYFCGGFDSSTDAIFGAGTTLTVL
notes: chicken HybriFree-derived antibody; also called Antibody 37
ARP-1, SC239-conjugated 2° antibody cell killing, EC50 [4]: 1000 pM | ARP-1, SC239-conjugated 2° antibody cell killing, Span [4]: 87% | U266B1, SC239-conjugated 2° antibody cell killing, EC50 [4]: 360 pM | U266B1, SC239-conjugated 2° antibody cell killing, Span [4]: 81%
